T1: recombinant human GPC2-His protein (Homo sapiens, UniProt Q8N158)
T1 construct: His
T1 sequence (Q8N158 24-554): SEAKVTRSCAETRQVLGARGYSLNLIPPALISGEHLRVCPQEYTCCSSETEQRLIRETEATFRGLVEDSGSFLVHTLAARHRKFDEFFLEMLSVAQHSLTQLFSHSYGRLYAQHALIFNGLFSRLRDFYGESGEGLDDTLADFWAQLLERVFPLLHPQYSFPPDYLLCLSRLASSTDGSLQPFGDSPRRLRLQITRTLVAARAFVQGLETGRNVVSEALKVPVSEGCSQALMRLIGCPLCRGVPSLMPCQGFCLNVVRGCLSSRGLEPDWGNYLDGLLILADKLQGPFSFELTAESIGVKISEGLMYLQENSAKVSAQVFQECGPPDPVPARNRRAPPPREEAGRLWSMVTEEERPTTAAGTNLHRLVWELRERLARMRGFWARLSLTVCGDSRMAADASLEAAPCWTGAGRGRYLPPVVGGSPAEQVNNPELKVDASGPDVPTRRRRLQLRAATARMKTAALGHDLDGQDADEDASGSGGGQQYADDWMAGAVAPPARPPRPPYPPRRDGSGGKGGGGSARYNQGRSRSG


Biological target: T1, recombinant human GPC2-His protein
Test: SPR (Biacore T200) affinity of anti-GPC2 VHH-hIgG1Fc
Settings: 1:1 binding model
Protocol: Each of the exemplary anti-GPC2 VHH sequences was cloned into a vector comprising a human IgG1Fc fragment (hlgG1Fc) sequence to facilitate recombinant expression of anti-GPC2 VHH-hlgG1Fc. Recombinant proteins were obtained and purified for SPR assays. The affinity of each anti-GPC2 VHH-hIgG1Fc for GPC2 was determined by SPR using a BIACORE® T200 analytical system (GE Healthcare). Briefly, recombinant human GPC2-His protein was covalently coupled to a CM5(s) sensor chip using an amine coupling kit. Exemplary VHH-hIgG1Fc proteins were serially diluted in running buffer (10 mM HEPES, 150 mM NaCl, 3 mM EDTA, 0.05% Tween-20, pH 7.4) and injected over the chip cell at a flowrate of 100 μL/min for 100 seconds followed by buffer-only injection for 300 seconds to allow for antibody dissociation. The dissociation […] (KD) were determined using the BIACORE® T200 evaluation software version 3.0 (Langmuir binding, local fit, 1:1 binding model).

| Molecule | ka [M⁻¹ s⁻¹] | kd [s⁻¹] |
| --- | --- | --- |
| AS72669VH6-hIgG1Fc: AS72669VH6 VHH fused to human IgG1Fc fragment (protein, left off: a dimerising Fc or GST, AS72669VH6 VHH fused to human IgG1Fc fragment) QVQLVESGGGVVQPGGSLRLSCAASRFTYSSYCMGWIRQAPGKGREGVAIFYTGGGRTYYADSVKGRFTISQDNSKNTLYLQMNSLRAEDTAVYYCVAGFYCSGGYWEGDFGYWGQGTLVTVSS | 520000 | 7.7e-05 |
| AS71529VH6-AS70950VH6-hIgG1Fc: tandem AS71529VH6-AS70950VH6 VHH fused to human IgG1Fc fragment (protein, left off: a dimerising Fc or GST, tandem AS71529VH6-AS70950VH6 VHH fused to human IgG1Fc fragment) EVQLVESGGGLVQPGGSLRLSCAVSEYRYSSRYCMGWFRQAPGKGREGVAAIDSNGSADYVDSVKGRFTISKDNSKNTLYLQMNSLRAEDTAMYYCAADHLAYDCYSGATSVFRYWGQGTLVTVSSGGGGSGGGGSGGGGSEVQLVESGGGLVQPGGSLRLSCAISEFTYKNTCVGWFRQAPGKGREGVAAIDSDGNTNYVDSVKGRFTISQDNSKNTVYLQMNSLRAEDTAMYYCAAGAYCGRLLLWIGNYAYWGQGTLVTVSS | 320000 | 6.1e-05 |

Tested on: human neuroblastoma cell line SH-SY5Y
Test: In vitro cytotoxicity assay (LDH), SH-SY5Y
Type: cell-based
Settings: second group, FIG. 6C
Protocol: The pre-activated T cells were transduced with lentivirus stock in the presence of […] polybrene and 300 IU/mL IL-2. T cells and lentivirus were centrifuged at 1000 g, 32° C. for 1 h and placed in humidified cell culture incubator for transgene expression under suitable conditions. On day 5 or day 7 or day 10 post-transduction, transduced T cells were harvested and co-incubated with tumor cells at an effector (CAR T) to target cell ratio of 10:1 or 5:1 or 2:1 or 1:1 or 0.2:1 for 20 hours. Target cells were human neuroblastoma cell line SH-SY5Y (ATCC, #CRL-2266), human neuroblastoma cell line IMR-32 cells (ATCC, #CCL-127), or human epidermoid carcinoma cell line A-431 (ATCC, #CRL-1555). To assay the cytotoxicity of CAR T cells on tumor cells, the Cytotoxicity Detection Kit (LDH) (Roche, #11644793001) assay reagents were prepared according to manufacturer's protocol. Reaction mix was added to the cell-free supernatant of each sample to detect the LDH released from cells. Optical densities at OD492 nm and OD650 nm were measured by PHERStar Microplate Reader. Baseline LDH released from the target cell in the absence of effector cells and effector cell in the absence of target cells were subtracted from the total LDH amount. The target maximum release was obtained by adding Triton-X100 at a final concentration of 1% to target cells in the absence of effector cells at the time when the cytotoxicity assays initiated. Supernatant from target cells in the absence of effector cells was used for target minimum release. The specific cytotoxicity was calculated by the formula: % Target cell lysis=100*[(OD CAR T cell+Target cell)−(OD CAR T cell)−(OD Target cell)+(OD Buffer background)]/(OD Target Maximum release−OD Target Minimum release).
On day 5 or day 8 or day 10 post-transduction, transduced T cells were harvested and co-incubated with tumor cells at an effector (CAR T) to target cell ratio of 10:1 or 1:1 or 0.2:1 for 20 hours. To assay the cytotoxicity of CAR T cells on tumor cells, the Cytotoxicity Detection Kit (LDH) (Roche, #11644793001) was added to the culture supernatant and the specific cytotoxicity for each CAR T cell construct was measured as described in Example 6.

| Molecule | cytotoxicity against SH-SY5Y compared with CAS70950-BBz, CAS72052-BBz and CAS72669-BBz |
| --- | --- |
| CAS77932-BBz: camel VHH anti-GPC2 CAR (4-1BB, CD3ζ), SEQ ID NO: 208; tested as CAR T cells (protein, expressed in CAR T cells; CAS77932-BBz) MALPVTALLLPLALLLHAARPQVQLKESGGGSVQAGGSLRLSCAVSGYWYSVAWMGWFRQTPGKEREGVAAVLNGGGRRYYADSVKGRFTISQDNSKNTLYLQMNSLKPEDTAMYYCAAGNGVGHPLGPSEYNYWGQGTQVTVSSTTTPAPRPPTPAPTIASQPLSLRPEACRPAAGGAVHTRGLDFACDIYIWAPLAGTCGVLLLSLVITLYCKRGRKKLLYIFKQPFMRPVQTTQEEDGCSCRFPEEEEGGCELRVKFSRSADAPAYKQGQNQLYNELNLGRREEYDVLDKRRGRDPEMGGKPRRKNPQEGLYNELQKDKMAEAYSEIGMKGERRRGKGHDGLYQGLSTATKDTYDALHMQALPPR | better cytotoxicity |
| CAS77986-BBz: camel VHH anti-GPC2 CAR (4-1BB, CD3ζ), SEQ ID NO: 211; tested as CAR T cells (protein, expressed in CAR T cells; CAS77986-BBz) MALPVTALLLPLALLLHAARPQVQLVESGGGSVQAGGSLRLSCAASASGYTYSSDSMAWFRQAPGKEREGVAGISTGGRSTYYADSVKGRFTISQDNAKTTVYLHMNSLKPEDTAMYYCAADGPSMTAIQALGDLYPVDFAWWGQGTQVTVSSTTTPAPRPPTPAPTIASQPLSLRPEACRPAAGGAVHTRGLDFACDIYIWAPLAGTCGVLLLSLVITLYCKRGRKKLLYIFKQPFMRPVQTTQEEDGCSCRFPEEEEGGCELRVKFSRSADAPAYKQGQNQLYNELNLGRREEYDVLDKRRGRDPEMGGKPRRKNPQEGLYNELQKDKMAEAYSEIGMKGERRRGKGHDGLYQGLSTATKDTYDALHMQALPPR | better cytotoxicity |
| CAS79236-BBz: camel VHH anti-GPC2 CAR (4-1BB, CD3ζ), SEQ ID NO: 216; tested as CAR T cells (protein, expressed in CAR T cells; CAS79236-BBz) MALPVTALLLPLALLLHAARPQVKLVESGGGSVQAGGSLRLSCAVSGYTYSSYCMAWFRQAPGEEREGVASIDAGGRTTYVDSVKGRFTISKDNAKTSLYLQMNSLKPEDTAMYYCAVDVRTRCGGTWDGEAVYFPYWGQGTQVTVSSTTTPAPRPPTPAPTIASQPLSLRPEACRPAAGGAVHTRGLDFACDIYIWAPLAGTCGVLLLSLVITLYCKRGRKKLLYIFKQPFMRPVQTTQEEDGCSCRFPEEEEGGCELRVKFSRSADAPAYKQGQNQLYNELNLGRREEYDVLDKRRGRDPEMGGKPRRKNPQEGLYNELQKDKMAEAYSEIGMKGERRRGKGHDGLYQGLSTATKDTYDALHMQALPPR | better cytotoxicity |
| CAS78117-BBz: camel VHH anti-GPC2 CAR (4-1BB, CD3ζ), SEQ ID NO: 212; tested as CAR T cells (protein, expressed in CAR T cells; CAS78117-BBz) MALPVTALLLPLALLLHAARPQVKLVESGGGSVQAGGALRLSCIVRRYTYATYSMAWFRQSPGKEREGVAGLDSVGATGYAESVKGRFTISKDNAKNILYLQMNSLKPEDTAMYYCVVDPASAKVTYGSWSTPSYAYWGQGTQVTVSSTTTPAPRPPTPAPTIASQPLSLRPEACRPAAGGAVHTRGLDFACDIYIWAPLAGTCGVLLLSLVITLYCKRGRKKLLYIFKQPFMRPVQTTQEEDGCSCRFPEEEEGGCELRVKFSRSADAPAYKQGQNQLYNELNLGRREEYDVLDKRRGRDPEMGGKPRRKNPQEGLYNELQKDKMAEAYSEIGMKGERRRGKGHDGLYQGLSTATKDTYDALHMQALPPR | better cytotoxicity |
| CAS77916-BBz: camel VHH anti-GPC2 CAR (4-1BB, CD3ζ), SEQ ID NO: 207; tested as CAR T cells (protein, expressed in CAR T cells; CAS77916-BBz) MALPVTALLLPLALLLHAARPQVHLMESGGGSVQAGGSLRLSCATSGYTSSWNCMGWFRQPPGKEREGVATIANRGHSTYYADSVKGRFTISQGNAKNTVYLQMNSLKPEDTAMYYCATDTWACVGISTDFEYWGQGTQVTVSSTTTPAPRPPTPAPTIASQPLSLRPEACRPAAGGAVHTRGLDFACDIYIWAPLAGTCGVLLLSLVITLYCKRGRKKLLYIFKQPFMRPVQTTQEEDGCSCRFPEEEEGGCELRVKFSRSADAPAYKQGQNQLYNELNLGRREEYDVLDKRRGRDPEMGGKPRRKNPQEGLYNELQKDKMAEAYSEIGMKGERRRGKGHDGLYQGLSTATKDTYDALHMQALPPR | better cytotoxicity |
| CAS79101-BBz: camel VHH anti-GPC2 CAR (4-1BB, CD3ζ), SEQ ID NO: 215; tested as CAR T cells (protein, expressed in CAR T cells; CAS79101-BBz) MALPVTALLLPLALLLHAARPQVQLVESGGGSVQAGGSLRLSCAASGDTYSNYCMGWFRQAPGKEREEVAAIDSDGSRRYPDSVKGRFTISKDNAKKILYLQMNSLKPEDTAMYFCATDPKVACARVVEYGGGWYRWGQGTQVTVSSTTTPAPRPPTPAPTIASQPLSLRPEACRPAAGGAVHTRGLDFACDIYIWAPLAGTCGVLLLSLVITLYCKRGRKKLLYIFKQPFMRPVQTTQEEDGCSCRFPEEEEGGCELRVKFSRSADAPAYKQGQNQLYNELNLGRREEYDVLDKRRGRDPEMGGKPRRKNPQEGLYNELQKDKMAEAYSEIGMKGERRRGKGHDGLYQGLSTATKDTYDALHMQALPPR | better cytotoxicity |

Reference: patent US12606635B2, “Glypican-2-binding moieties, chimeric antigen receptors and uses thereof” (Nanjing Legend Biotech Co., Ltd., priority 2020, dated 2026)
